Experiments:
HeLa Kyoto [1] = assay: solubility change mitosis vs G1/S (difference of NP-40 vs SDS log2 ratios) (log2 ratio difference); higher = more soluble in mitosis
HeLa Kyoto [2] = assay: melting temperature (median over replicates), in situ; higher = more thermally stable
HeLa Kyoto [3] = assay: solubility in G1/S (NP-40 vs SDS abundance) (log2 ratio); higher = more soluble; conditions: cell cycle stage: G1/S
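Throughout, for melting temperature (median over replicates), in situ: HeLa Kyoto cells synchronized by double thymidine or nocodazole block, proteins quantified by TMT10plex mass spectrometry, three independent biological replicates.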
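Throughout, for solubility change mitosis vs G1/S (difference of NP-40 vs SDS log2 ratios): synchronized HeLa Kyoto cells (double thymidine block for G1/S, nocodazole release for mitosis), protein amounts in NP-40 versus SDS lysates quantified by mass spectrometry, three biological replicates.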
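Throughout, for solubility in G1/S (NP-40 vs SDS abundance): HeLa Kyoto cells arrested at G1/S by double thymidine block, proteins quantified by TMT10plex mass spectrometry in mild NP-40 versus SDS extracts, three biological replicates.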

Row | Sequence | solubility change mitosis (log2) (HeLa Kyoto [1]) | melting temperature (HeLa Kyoto [2]; cell cycle stage: G1/S) | solubility in G1/S (log2) (HeLa Kyoto [3]) | melting temperature (HeLa Kyoto [2]; cell cycle stage: mitosis)
1 | MAEPDYIEDDNPELIRPQKLINPVKTSRNHQDLHRELLMNQKRGLAPQNKPELQKVMEKRKRDQVIKQKEEEAQKKKSDLEIELLKRQQKLEQLELEKQKLQEEQENAPEFVKVKGNLRRTGQEVAQAQES [FAM107B] | 0.435 | 57.3 °C | 0.00364 | 
2 | MAFTNYSSLNRAQLTFEYLHTNSTTHEFLFGALAELVDNARDADATRIDIYAERREDLRGGFMLCFLDDGAGMDPSDAASVIQFGKSAKRTPESTQIGQYGNGLKSGSMRIGKDFILFTKKEDTMTCLFLSRTFHEEEGIDEVIVPLPTWNARTREPVTDNVEKFAIETELIYKYSPFRTEEEVMTQFMKIPGDSGTLVIIFNLKLMDNGEPELDIISNPRDIQMAETSPEGTKPERRSFRAYAAVLYIDPRMRIFIHGHKVQTKRLSCCLYKPRMYKYTSSRFKTRAEQEVKKAEHVARIAEEKAREAESKARTLEVRLGGDLTRDSRVMLRQVQNRAITLRREADVKKRIKEAKQRALKEPKELNFVFGVNIEHRDLDGMFIYNCSRLIKMYEKVGPQLEGGMACGGVVGVVDVPYLVLEPTHNKQDFADAKEYRHLLRAMGEHLAQYWKDIAIAQRGIIKFWDEFGYLSANWNQPPSSELRYKRRRAMEIPTTIQCDLCLKWRTLPFQLSSVEKDYPDTWVCSMNPDPEQDRCEASEQKQKVPLGTFRKDMKTQEEKQKQLTEKIRQQQEKLEALQKTTPIRSQADLKKLPLEVTTRPSTEEPVRRPQRPRSPPLPAVIRNAPSRPPSLPTPRPASQPRKAPVISSTPKLPALAAREEASTSRLLQPPEAPRKPANTLVKTASRPAPLVQQLSPSLLPNSKSPREVPSPKVIKTPVVKKTESPIKLSPATPSRKRSVAVSDEEEVEEEAERRKERCKRGRFVVKEEKKDSNELSDSAGEEDSADLKRAQKDKGLHVEVRVNREWYTGRVTAVEVGKHVVRWKVKFDYVPTDTTPRDRWVEKGSEDVRLMKPPSPEHQSLDTQQEGGEEEVGPVAQQAIAVAEPSTSECLRIEPDTTALSTNHETIDLLVQILRNCLRYFLPPSFPISKKQLSAMNSDELISFPLKEYFKQYEVGLQNLCNSYQSRADSRAKASEESLRTSERKLRETEEKLQKLRTNIVALLQKVQEDIDINTDDELDAYIEDLITKGD [MORC2] | -0.0838 | 48.1 °C | -0.0374 | 48.6 °C
3 | MAGSPELVVLDPPWDKELAAGTESQALVSATPREDFRVRCTSKRAVTEMLQLCGRFVQKLGDALPEEIREPALRDAQWTFESAVQENISINGQAWQEASDNCFMDSDIKVLEDQFDEIIVDIATKRKQYPRKILECVIKTIKAKQEILKQYHPVVHPLDLKYDPDPAPHMENLKCRGETVAKEISEAMKSLPALIEQGEGFSQVLRMQPVIHLQRIHQEVFSSCHRKPDAKPENFITQIETTPTETASRKTSDMVLKRKQTKDCPQRKWYPLRPKKINLDT [NSL1] | -0.0661 | 50.2 °C | 0.0226 | 49.9 °C
4 | MAHRLQIRLLTWDVKDTLLRLRHPLGEAYATKARAHGLEVEPSALEQGFRQAYRAQSHSFPNYGLSHGLTSRQWWLDVVLQTFHLAGVQDAQAVAPIAEQLYKDFSHPCTWQVLDGAEDTLRECRTRGLRLAVISNFDRRLEGILGGLGLREHFDFVLTSEAAGWPKPDPRIFQEALRLAHMEPVVAAHVGDNYLCDYQGPRAVGMHSFLVVGPQALDPVVRDSVPKEHILPSLAHLLPALDCLEGSTPGL [HDHD3] | 0.0289 | 53.9 °C | 0.0599 | 54.8 °C
5 | MALITLRKNLYRLSDFQMHRALAALKNKPLNHVHKVVKERLCPWLCSRQPEPFGVKFHHAHCKKFHSKNGNDLHPLGGPVFSQVSDCDRLEQNVKNEESQMFYRRLSNLTSSEEVLSFISTMETLPDTMAAGALQRICEVEKKDGDQGLPKEILENSIFQALCFQFEKEPSQLSNTSLVTALQALILLHVDPQSSLLLNLVAECQNRLRKGGMEVRNLCILGESLITLHSSGCVTLELIINQLQGEKLETFTPEDIVALYRILQACTEKVDEHQTFLNKINNFSLSIVSNLSPKLISQMLTALVVLDQSQAFPLIIKLGKYVVRHVPHFTNEELRRVLEAFIYFGHHDTFFTKALEHRVAAVCLTLDPEVVCRVMEYCSRELILSKPILNAVAETFVCQTEKFSPRQISALMEPFGKLNYLPPNASALFRKLENVLFTHFNYFPPKSLLKLLHSCSLNECHPVNFLAKIFKPLFLQRLQGKESHLDTLSRAQLTQLFLASVLECPFYKGPKLLPKYQVKSFLTPCCSLETPVDSQLYRYVKIGLTNLLGARLYFAPKVLTPYCYTIDVEIKLDEEGFVLPSTANEDIHKRIALCIDGPKRFCSNSKHLLGKEAIKQRHLQLLGYQVVQIPYHEIGMLKSRRELVEYLQRKLFSQNTVHWLQE [FASTKD3] | -0.151 |  | -0.00458 | 47.8 °C
6 | MALLAEHLLKPLPADKQIETGPFLEAVSHLPPFFDCLGSPVFTPIKADISGNITKIKAVYDTNPAKFRTLQNILEVEKEMYGAEWPKVGATLALMWLKRGLRFIQVFLQSICDGERDENHPNLIRVNATKAYEMALKKYHGWIVQKIFQAALYAAPYKSDFLKALSKGQNVTEEECLEKIRLFLVNYTATIDVIYEMYTQMNAELNYKV [GLTP] | -0.117 |  | -0.139 | 53.3 °C
7 | MAMSFEWPWQYRFPPFFTLQPNVDTRQKQLAAWCSLVLSFCRLHKQSSMTVMEAQESPLFNNVKLQRKLPVESIQIVLEELRKKGNLEWLDKSKSSFLIMWRRPEEWGKLIYQWVSRSGQNNSVFTLYELTNGEDTEDEEFHGLDEATLLRALQALQQEHKAEIITVSDGRGVKFF [VPS25] | -0.086 | 51.2 °C | -0.0882 | 51.3 °C
8 | MAMVVSTWRDPQDEVPGSQGSQASQAPPVPGPPPGAPHTPQTPGQGGPASTPAQTAAGGQGGPGGPGSDKQQQQQHIECVVCGDKSSGKHYGQFTCEGCKSFFKRSVRRNLSYTCRANRNCPIDQHHRNQCQYCRLKKCLKVGMRREAVQRGRMPPTQPTHGQFALTNGDPLNCHSYLSGYISLLLRAEPYPTSRFGSQCMQPNNIMGIENICELAARMLFSAVEWARNIPFFPDLQITDQVALLRLTWSELFVLNAAQCSMPLHVAPLLAAAGLHASPMSADRVVAFMDHIRIFQEQVEKLKALHVDSAEYSCLKAIVLFTSDACGLSDVAHVESLQEKSQCALEEYVRSQYPNQPTRFGKLLLRLPSLRTVSSSVIEQLFFVRLVGKTPIETLIRDMLLSGSSFNWPYMAIQ [NR2F2] | -0.152 |  | -0.00984 | 50.3 °C
9 | MAQEFVNCKIQPGKVVVFIKPTCPYCRRAQEILSQLPIKQGLLEFVDITATNHTNEIQDYLQQLTGARTVPRVFIGKDCIGGCSDLVSLQQSGELLTRLKQIGALQ [GLRX] | 0.0467 | 54.7 °C | 0.253 | 53.4 °C
10 | MAQRLLLRRFLASVISRKPSQGQWPPLTSRALQTPQCSPGGLTVTPNPARTIYTTRISLTTFNIQDGPDFQDRVVNSETPVVVDFHAQWCGPCKILGPRLEKMVAKQHGKVVMAKVDIDDHTDLAIEYEVSAVPTVLAMKNGDVVDKFVGIKDEDQLEAFLKKLIG [TXN2] | 0.017 | 53.5 °C | 0.576 | 52.9 °C
11 | MAQSINITELNLPQLEMLKNQLDQEVEFLSTSIAQLKVVQTKYVEAKDCLNVLNKSNEGKELLVPLTSSMYVPGKLHDVEHVLIDVGTGYYVEKTAEDAKDFFKRKIDFLTKQMEKIQPALQEKHAMKQAVMEMMSQKIQQLTALGAAQATAKA [PFDN5] | 0.784 | 54.4 °C | -0.425 | 53.1 °C
12 | MARDLIGPALPPGFKARGTAEDEERDPSPVAGPALPPNYKSSSSDSSDSDEDSSSLYEEGNQESEEDDSGPTARKQRKNQDDDDDDDDGFFGPALPPGFKKQDDSPPRPIIGPALPPGFIKSTQKSDKGRDDPGQQETDSSEDEDIIGPMPAKGPVNYNVTTEFEKRAQRMKEKLTKGDDDSSKPIVRESWMTELPPEMKDFGLGPRTFKRRADDTSGDRSIWTDTPADRERKAKETQEARKSSSKKDEEHILSGRDKRLAEQVSSYNESKRSESLMDIHHKKLKSKAAEDKNKPQERIPFDRDKDLKVNRFDEAQKKALIKKSRELNTRFSHGKGNMFL [GPALPP1] | 0.245 | 55.1 °C | 0.0784 | 56.1 °C
13 | MASPAASSVRPPRPKKEPQTLVIPKNAAEEQKLKLERLMKNPDKAVPIPEKMSEWAPRPPPEFVRDVMGSSAGAGSGEFHVYRHLRRREYQRQDYMDAMAEKQKLDAEFQKRLEKNKIAAEEQTAKRRKKRQKLKEKKLLAKKMKLEQKKQEGPGQPKEQGSSSSAEASGTEEEEEVPSFTMGR [PRKRIP1] | 0.169 | 53.3 °C | 0.499 | 53.6 °C
14 | MASQGRRRRPLRRPETVVPGEATETDSERSASSSEEEELYLGPSGPTRGRPTGLRVAGEAAETDSEPEPEPEPTAAPRDLPPLVVQRESAEEAWGTEEAPAPAPARSLLQLRLAESQARLDHDVAAAVSGVYRRAGRDVAALASRLAAAQAAGLAAAHSVRLARGDLCALAERLDIVAGCRLLPDIRGVPGTEPEKDPGPRA [BLOC1S3] | 0.0331 | 52.6 °C | 0.568 | 54.9 °C
15 | MASSAASSEHFEKLHEIFRGLHEDLQGVPERLLGTAGTEEKKKLIRDFDEKQQEANETLAEMEEELRYAPLSFRNPMMSKLRNYRKDLAKLHREVRSTPLTATPGGRGDMKYGIYAVENEHMNRLQSQRAMLLQGTESLNRATQSIERSHRIATETDQIGSEIIEELGEQRDQLERTKSRLVNTSENLSKSRKILRSMSRKVTTNKLLLSIIILLELAILGGLVYYKFFRSH [VTI1B] | 0.188 | 53.5 °C | 0.392 | 52.5 °C
16 | MASSASARTPAGKRVINQEELRRLMKEKQRLSTSRKRIESPFAKYNRLGQLSCALCNTPVKSELLWQTHVLGKQHREKVAELKGAKEASQGSSASSAPHSVKRKAPDADDQDVKRAKATLVPQVQPSTSAWTTNFDKIGKEFIRATPSKPSGLSLLPDYEDEEEEEEEEEGDGERKRGDASKPLSDAQGKEHSVSSSREVTSSVLPNDFFSTNPPKAPIIPHSGSIEKAEIHEKVVERRENTAEALPEGFFDDPEVDARVRKVDAPKDQMDKEWDEFQKAMRQVNTISEAIVAEEDEEGRLDRQIGEIDEQIECYRRVEKLRNRQDEIKNKLKEILTIKELQKKEEENADSDDEGELQDLLSQDWRVKGALL [ZNF830] | 0.0142 | 56.2 °C | 0.423 | 54.4 °C
17 | MASSFLPAGAITGDSGGELSSGDDSGEVEFPHSPEIEETSCLAELFEKAAAHLQGLIQVASREQLLYLYARYKQVKVGNCNTPKPSFFDFEGKQKWEAWKALGDSSPSQAMQEYIAVVKKLDPGWNPQIPEKKGKEANTGFGGPVISSLYHEETIREEDKNIFDYCRENNIDHITKAIKSKNVDVNVKDEEGRALLHWACDRGHKELVTVLLQHRADINCQDNEGQTALHYASACEFLDIVELLLQSGADPTLRDQDGCLPEEVTGCKTVSLVLQRHTTGKA [ACBD6] | 0.0566 | 48 °C | 0.393 | 49.2 °C
18 | MASSLNEDPEGSRITYVKGDLFACPKTDSLAHCISEDCRMGAGIAVLFKKKFGGVQELLNQQKKSGEVAVLKRDGRYIYYLITKKRASHKPTYENLQKSLEAMKSHCLKNGVTDLSMPRIGCGLDRLQWENVSAMIEEVFEATDIKITVYTL [OARD1] | 0.139 |  | 0.299 | 50.5 °C
19 | MASYFDEHDCEPSDPEQETRTNMLLELARSLFNRMDFEDLGLVVDWDHHLPPPAAKTVVENLPRTVIRGSQAELKCPVCLLEFEEEETAIEMPCHHLFHSSCILPWLSKTNSCPLCRYELPTDDDTYEEHRRDKARKQQQQHRLENLHGAMYT [RNF181] | 0.00514 | 54.8 °C | 0.563 | 55.8 °C
